Results as given in IntAct's records for PubMed 19853560.

B1: Phosphatidylinositol 3,4,5-trisphosphate 3-phosphatase and dual-specificity protein phosphatase daf-18 (Caenorhabditis elegans), G5EE01 (parent)
chain: MVTPPPDVPSTSTRSMARDLQENPNRQPGEPRVSEPYHNSIVERIRHIFRTAVSSNRCRTEYQNIDLDCAYITDRIIAIGYPATGIEANFRNSKVQTQQFLTRRHGKGNVKVFNLRGGYYYDADNFDGNVICFDMTDHHPPSLELMAPFCREAKEWLEADDKHVIAVHCKAGKGRTGVMICALLIYINFYPSPRQILDYYSIIRTKNNKGVTIPSQRRYIYYYHKLRERELNYLPLRMQLIGVYVERPPKTWGGGSKIKVEVGNGSTILFKPDPLIISKSNHQRERATWLNNCDTPNEFDTGEQKYHGFVSKRAYCFMVPEDAPVFVEGDVRIDIREIGFLKKFSDGKIGHVWFNTMFACDGGLNGGHFEYVDKTQPYIGDDTSIGRKNGMRRNETPMRKIDPETGNEFESPWQIVNPPGLEKHITEEQAMENYTNYGMIPPRYTISKILHEKHEKGIVKDDYNDRKLPMGDKSYTESGKSGDIRGVGGPFEIPYKAEEHVLTFPVYEMDRALKSKDLNNGMKLHVVLRCVDTRDSKMMEKSEVFGNLAFHNESTRRLQALTQMNPKWRPEPCAFGSKGAEMHYPPSVRYSSNDGKYNGACSENLVSDFFEHRNIAVLNRYCRYFYKQRSTSRSRYPRKFRYCPLIKKHFYIPADTDDVDENGQPFFHSPEHYIKEQEKIDAEKAAKGIENTGPSTSGSSAPGTIKKTEASQSDKVKPATEDELPPARLPDNVRRFPVVGVDFENPEEESCEHKTVESIAGFEPLEHLFHESYHPNTAGNMLRQDYHTDSEVKIAEQEAKAFVDQLLNGQGVLQEFMKQFKVPSDNSFADYVTGQAEVFKAQIALLEQSEDFQRVQANAEEVDLEHTLGEAFERFGHVVEESNGSSKNPKALKTREQMVKETGKDTQKTRNHVLLHLEANHRVQIERRETCPELHPEDKIPRIAHFSENSFSDSNFDQAIYL
partner: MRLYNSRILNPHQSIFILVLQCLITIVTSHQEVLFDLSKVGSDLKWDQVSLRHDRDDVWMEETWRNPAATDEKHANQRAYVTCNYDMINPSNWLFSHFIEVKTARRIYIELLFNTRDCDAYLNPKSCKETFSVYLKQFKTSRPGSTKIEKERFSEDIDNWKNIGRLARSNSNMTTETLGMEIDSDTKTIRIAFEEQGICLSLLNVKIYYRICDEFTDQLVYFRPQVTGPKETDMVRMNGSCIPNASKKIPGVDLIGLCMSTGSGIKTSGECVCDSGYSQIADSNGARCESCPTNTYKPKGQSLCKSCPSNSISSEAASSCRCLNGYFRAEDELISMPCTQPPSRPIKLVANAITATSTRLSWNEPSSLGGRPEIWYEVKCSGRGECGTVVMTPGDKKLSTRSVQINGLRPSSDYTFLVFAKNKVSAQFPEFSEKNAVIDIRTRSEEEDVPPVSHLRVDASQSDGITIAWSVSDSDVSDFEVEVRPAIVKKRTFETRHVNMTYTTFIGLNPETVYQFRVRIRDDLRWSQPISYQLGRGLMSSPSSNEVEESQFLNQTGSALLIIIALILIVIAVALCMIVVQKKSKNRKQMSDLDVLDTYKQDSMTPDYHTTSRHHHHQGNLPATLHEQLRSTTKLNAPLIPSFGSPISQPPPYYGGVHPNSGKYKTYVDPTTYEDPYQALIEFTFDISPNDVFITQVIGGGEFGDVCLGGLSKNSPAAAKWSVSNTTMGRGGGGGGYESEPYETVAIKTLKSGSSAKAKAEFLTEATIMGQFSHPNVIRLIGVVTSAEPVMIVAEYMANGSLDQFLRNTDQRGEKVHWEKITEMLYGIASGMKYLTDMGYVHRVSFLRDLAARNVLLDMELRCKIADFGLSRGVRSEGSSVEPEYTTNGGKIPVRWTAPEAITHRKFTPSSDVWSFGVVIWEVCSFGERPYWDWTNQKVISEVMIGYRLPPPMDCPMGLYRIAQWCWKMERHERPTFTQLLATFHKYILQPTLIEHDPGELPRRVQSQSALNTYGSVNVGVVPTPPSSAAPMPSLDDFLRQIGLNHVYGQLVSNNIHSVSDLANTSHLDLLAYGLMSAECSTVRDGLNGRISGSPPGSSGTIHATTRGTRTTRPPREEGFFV

Variants of: B1
Details: with vab1_caeel vab-1, O61460

effect of a mutation on the interaction | Variant
increasing interaction | D137A
